# Experimental data published in article PMC7864060, “The cation diffusion facilitator protein MamM's cytoplasmic domain exhibits metal-type dependent binding modes and discriminates against Mn^2+” (The Journal of Biological Chemistry, 2020).
# Changes are numbered by the printed parent chain. In names and notes the source's numbering stands.
# B1: MamM CTD (cytoplasmic C-terminal domain of MamM, residues 215-318) (domain or fragment, UniProt V6F235 215-318, looked up)
# chain: EAVQNRIVEAAERVPGVRGVIHLRARYVGQDIWADMIIGVDPENTVEQAHEICEAVQAAVCGKIRRIESLHVSAEAREIGDTTKPSFSDQPLSFDEVMLSKVDN
# notes: MamM, cation diffusion facilitator iron transporter of magnetotactic bacteria, UniProt Q6NE57, C-terminal domain, residues 215-318; Homodimer in all crystal forms; also called WT MamM CTD; MamM's cytoplasmic domain
# B2: spin-labeled C267S MamM CTD (domain or fragment, UniProt V6F235 215-318, looked up)
# chain: B1 chain with C53S
# modifications: MTSL spin label on Cys-275
# notes: MamM, cation diffusion facilitator iron transporter of magnetotactic bacteria, UniProt Q6NE57, C-terminal domain, residues 215-318, with C267S; Only Cys-275 is left for labelling with MTSL; also called C267SSL; MamM CTD C267S
# How the values were obtained:
# [1] = target: the molecule itself; assay: crystal structure; MamM CTD 20 mg/ml co-crystallised with 3.375 mM CuSO4; 10 mM Tris pH 8.0, 150 mM NaCl, 5 mM β-mercaptoethanol; vapor diffusion, 293 K
# [2] = target: the molecule itself; assay: PELDOR (pulsed EPR) spectroscopy; four-pulse PELDOR at 50 K on MTSL-labelled C267S MamM CTD (250 or 500 µM in D2O, 30% glycerol-d8) incubated with 3- or 5-fold excess of Cd2+, Ni2+, Cu2+, Fe2+ or Mn2+; distance between the Cys-275 labels of the two protomers
Protein,binding result [1],binding result [2]
B1,binds,
B2,,binds
